{"source": "paper PMC12005725", "key": {"[1]": {"molecular_target": "axonemes (purified from sea urchin sperm flagella) (sea urchin)", "assay": "single-molecule fluorescence microscopy (TIRF), dwell time; oxidized condition (no 2-mercaptoethanol); axonemes on the slide, 200 or 500 pM GFP-kinesin in solution, 1 mM ATP, 100 mM KCl, BRB12; 10 ms resolution; k2_SMF is the inverse of the mean dwell time"}, "[2]": {"molecular_target": "microtubule (polymerized tubulin, taxol-stabilised) (UniProt P02550)", "sequence (P02550 whole entry, looked up)": "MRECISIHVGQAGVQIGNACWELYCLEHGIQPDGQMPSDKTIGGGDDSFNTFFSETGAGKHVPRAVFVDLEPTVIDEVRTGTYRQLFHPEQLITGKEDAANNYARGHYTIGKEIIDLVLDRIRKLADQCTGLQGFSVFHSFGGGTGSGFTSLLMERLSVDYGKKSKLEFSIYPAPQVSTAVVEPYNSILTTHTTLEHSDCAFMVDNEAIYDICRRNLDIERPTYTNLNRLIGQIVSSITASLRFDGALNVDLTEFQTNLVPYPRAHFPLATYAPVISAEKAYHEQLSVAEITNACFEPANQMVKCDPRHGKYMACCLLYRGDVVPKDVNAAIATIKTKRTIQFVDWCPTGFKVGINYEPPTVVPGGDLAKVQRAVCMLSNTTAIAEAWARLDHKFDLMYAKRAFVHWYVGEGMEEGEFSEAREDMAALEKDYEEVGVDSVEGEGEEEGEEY", "assay": "stopped-flow turbidity (light scattering); reduced condition (10 mM DTT); nucleotide-free complex of 3.2 uM kinesin and 4 uM microtubule (20 uM taxol, 0.1 U/ml apyrase), 150 mM KCl added, rapidly mixed with 1 mM ATP plus 150 mM KCl; BRB25 pH 6.8, 25 C; turbidity at 340 nm, burst equation"}, "[3]": {"molecular_target": "microtubule (polymerized tubulin, taxol-stabilised) (UniProt P02550)"}, "[4]": {"molecular_target": "axonemes (purified from sea urchin sperm flagella) (sea urchin)", "assay": "single-molecule fluorescence microscopy (TIRF), dwell time; reducing condition (70 mM 2-mercaptoethanol); axonemes on the slide, 200 or 500 pM GFP-kinesin in solution, 1 mM ATP, 100 mM KCl, BRB12; 10 ms resolution; k2_SMF is the inverse of the mean dwell time"}, "[5]": {"molecular_target": "microtubule (polymerized tubulin, taxol-stabilised) (UniProt P02550)", "remark": "listed apart in the source"}, "[6]": {"molecular_target": "microtubule (polymerized tubulin, taxol-stabilised) (UniProt P02550)", "assay": "high-speed total internal reflection dark-field microscopy of gold-labeled kinesin; microtubules held on glass by protein A and anti-alpha-tubulin antibody, 3 nM gold-labeled kinesin, BRB12 with 20 mM KCl and 1-1000 uM ATP, 24-26 C, 20,000 fps; bound and unbound states of the gold-labeled WT head while the E236A head stays bound"}, "[7]": {"molecular_target": "microtubule (polymerized tubulin, taxol-stabilised) (UniProt P02550)", "assay": "stopped-flow turbidity (light scattering); oxidized condition (10 uM CuCl2, 20 uM o-phenanthroline); nucleotide-free complex of 3.2 uM kinesin and 4 uM microtubule (20 uM taxol, 0.1 U/ml apyrase), 150 mM KCl added, rapidly mixed with 1 mM ATP plus 150 mM KCl; BRB25 pH 6.8, 25 C; turbidity at 340 nm, burst equation"}, "[8]": {"molecular_target": "microtubule (polymerized tubulin, taxol-stabilised) (UniProt P02550)", "assay": "single-molecule fluorescence (smFRET with Alexa-ATP, TIRF) on microtubules; microtubules on a poly-L-lysine-coated slide, 100 pM ATTO488-kinesin, 500 nM Alexa Fluor 647 ATP, 150 mM KCl, 20 uM taxol, BRB12, 22 C, 10 ms exposure"}}}
{"substance": "GFP-fused K339 Cys-light C4/C330 kinesin, oxidized (crosslinked) (from UniProt P33176 1-339) (domain or fragment)", "values": [{"measurement": "k2 SMF (inverse of the mean dwell time on the microtubule, 1 mM ATP)", "setting": "[1]", "value": 58.4, "unit": "s⁻¹"}]}
{"substance": "Cys-light K339 C47/C328 monomer, reduced (un-crosslinked) (from UniProt P33176 1-339) (domain or fragment)", "values": [{"measurement": "k2 (ATP-induced dissociation rate from microtubule, light scattering)", "setting": "[2]", "value": 51.5, "unit": "s⁻¹"}, {"measurement": "Km(MT) of the steady-state microtubule-activated ATPase, reduced condition", "setting": "[3]", "value": 0.28, "unit": "µM"}]}
{"substance": "GFP-fused K339 Cys-light C4/C330 kinesin, reduced (from UniProt P33176 1-339) (domain or fragment)", "values": [{"measurement": "k2 SMF (inverse of the mean dwell time on the microtubule, 1 mM ATP)", "setting": "[4]", "value": 59.5, "unit": "s⁻¹"}]}
{"substance": "GFP-fused K339 Cys-light kinesin (WT, no cysteine introduction) (from UniProt P33176 1-339) (domain or fragment)", "values": [{"measurement": "k2 SMF (inverse of the mean dwell time on the microtubule, 1 mM ATP)", "setting": "[1]", "value": 41.6, "unit": "s⁻¹"}, {"measurement": "k2 SMF (inverse of the mean dwell time on the microtubule, 1 mM ATP)", "setting": "[4]", "value": 44, "unit": "s⁻¹"}]}
{"substance": "GFP-fused K339 Cys-light C222/C334 kinesin, oxidized (rear head crosslink) (from UniProt P33176 1-339) (domain or fragment)", "values": [{"measurement": "fold reduction of the binding frequency to the microtubule after crosslinking", "setting": "[1]", "value": 6, "unit": "fold"}, {"measurement": "k2 SMF (inverse of the mean dwell time on the microtubule, 1 mM ATP)", "setting": "[1]", "value": 57.1, "unit": "s⁻¹"}]}
{"substance": "Cys-light K339 C47/C335 monomer, reduced (un-crosslinked) (from UniProt P33176 1-339) (domain or fragment)", "values": [{"measurement": "k2 (ATP-induced dissociation rate from microtubule, light scattering)", "setting": "[2]", "value": 41.6, "unit": "s⁻¹"}, {"measurement": "Km(MT) of the steady-state microtubule-activated ATPase, reduced condition", "setting": "[3]", "value": 0.33, "unit": "µM"}]}
{"substance": "GFP-fused K339 Cys-light C47/C335 kinesin, oxidized (crosslinked) (from UniProt P33176 1-339) (domain or fragment)", "values": [{"measurement": "k2 SMF (inverse of the mean dwell time on the microtubule, 1 mM ATP)", "setting": "[1]", "value": 22.5, "unit": "s⁻¹"}]}
{"substance": "E236A–WT heterodimer with a 12 poly-Gly insertion (G12), WT head labeled with a gold nanoparticle (from UniProt P33176 1-490; P33176 1-490) (complex)", "values": [{"measurement": "Km (MT) of the microtubule-activated ATPase of the heterodimer (G12)", "setting": "[5]", "value": 0.14, "unit": "µM"}, {"measurement": "dwell time of the WT head bound at the front-binding site at 1 mM ATP", "setting": "[6]", "value": 111, "unit": "ms"}, {"measurement": "dwell time of the WT head bound at the rear-tubulin-binding site at 1 mM ATP", "setting": "[6]", "value": 19, "unit": "ms"}, {"measurement": "kcat of the inverse bound dwell time against ATP, taken as the ATP-induced detachment rate k2 of the front WT head", "setting": "[6]", "value": 9.3, "unit": "s^–1"}]}
{"substance": "Cys-light K339 C4/C330 monomer, reduced (un-crosslinked) (from UniProt P33176 1-339) (domain or fragment)", "values": [{"measurement": "k2 (ATP-induced dissociation rate from microtubule, light scattering)", "setting": "[2]", "value": 68.6, "unit": "s⁻¹"}, {"measurement": "Km(MT) of the steady-state microtubule-activated ATPase, reduced condition", "setting": "[3]", "value": 0.42, "unit": "µM"}]}
{"substance": "GFP-fused K339 Cys-light C47/C328 kinesin, reduced (from UniProt P33176 1-339) (domain or fragment)", "values": [{"measurement": "k2 SMF (inverse of the mean dwell time on the microtubule, 1 mM ATP)", "setting": "[4]", "value": 42.1, "unit": "s⁻¹"}]}
{"substance": "GFP-fused K339 Cys-light C222/C334 kinesin, reduced (from UniProt P33176 1-339) (domain or fragment)", "values": [{"measurement": "k2 SMF (inverse of the mean dwell time on the microtubule, 1 mM ATP)", "setting": "[4]", "value": 47.2, "unit": "s⁻¹"}]}
{"substance": "Cys-light K339 C47/C328 monomer, oxidized (disulfide-crosslinked; front head crosslink) (from UniProt P33176 1-339) (domain or fragment)", "values": [{"measurement": "Km(MT) of the steady-state microtubule-activated ATPase, oxidized condition", "setting": "[3]", "value": 0.13, "unit": "µM"}, {"measurement": "k2 (ATP-induced dissociation rate from microtubule, light scattering)", "setting": "[7]", "value": 7, "unit": "s⁻¹"}]}
{"substance": "Cys-light K339 monomeric kinesin with no cysteine introduction (WT) (from UniProt P33176 1-339) (domain or fragment)", "values": [{"measurement": "k2 (ATP-induced dissociation rate from microtubule, light scattering)", "setting": "[2]", "value": 52.1, "unit": "s⁻¹"}, {"measurement": "Km(MT) of the steady-state microtubule-activated ATPase, oxidized condition", "setting": "[3]", "value": 0.36, "unit": "µM"}, {"measurement": "Km(MT) of the steady-state microtubule-activated ATPase, reduced condition", "setting": "[3]", "value": 0.31, "unit": "µM"}, {"measurement": "k2 (ATP-induced dissociation rate from microtubule, light scattering)", "setting": "[7]", "value": 59.1, "unit": "s⁻¹"}]}
{"substance": "Cys-light K339 C222/C334 monomer, oxidized (disulfide-crosslinked; rear head crosslink) (from UniProt P33176 1-339) (domain or fragment)", "values": [{"measurement": "Km(MT) of the steady-state microtubule-activated ATPase, oxidized condition", "setting": "[3]", "value": 0.2, "unit": "µM"}]}
{"substance": "E236A–WT heterodimer with a 7 poly-Gly insertion (G7), WT head labeled with a gold nanoparticle (from UniProt P33176 1-490; P33176 1-490) (complex)", "values": [{"measurement": "Km (MT) of the microtubule-activated ATPase of the heterodimer (G7)", "setting": "[5]", "value": 0.18, "unit": "µM"}, {"measurement": "kcat of the inverse bound dwell time against ATP, taken as the ATP-induced detachment rate k2 of the front WT head", "setting": "[6]", "value": 7.6, "unit": "s^–1"}]}
{"substance": "Cys-light K339 C47/C335 monomer, oxidized (disulfide-crosslinked; loose backward crosslink) (from UniProt P33176 1-339) (domain or fragment)", "values": [{"measurement": "Km(MT) of the steady-state microtubule-activated ATPase, oxidized condition", "setting": "[3]", "value": 0.1, "unit": "µM"}, {"measurement": "k2 (ATP-induced dissociation rate from microtubule, light scattering)", "setting": "[7]", "value": 19.4, "unit": "s⁻¹"}]}
{"substance": "Cys-light K339 C222/C334 monomer, reduced (un-crosslinked) (from UniProt P33176 1-339) (domain or fragment)", "values": [{"measurement": "k2 (ATP-induced dissociation rate from microtubule, light scattering)", "setting": "[2]", "value": 69.3, "unit": "s⁻¹"}, {"measurement": "Km(MT) of the steady-state microtubule-activated ATPase, reduced condition", "setting": "[3]", "value": 0.23, "unit": "µM"}]}
{"substance": "GFP-fused K339 Cys-light C47/C335 kinesin, reduced (from UniProt P33176 1-339) (domain or fragment)", "values": [{"measurement": "k2 SMF (inverse of the mean dwell time on the microtubule, 1 mM ATP)", "setting": "[4]", "value": 52.1, "unit": "s⁻¹"}]}
{"substance": "Cys-light K339 C4/C330 monomer, oxidized (disulfide-crosslinked between cover strand and neck linker) (from UniProt P33176 1-339) (domain or fragment)", "values": [{"measurement": "Km(MT) of the steady-state microtubule-activated ATPase, oxidized condition", "setting": "[3]", "value": 8.36, "unit": "µM"}, {"measurement": "k2 (ATP-induced dissociation rate from microtubule, light scattering)", "setting": "[7]", "value": 80.8, "unit": "s⁻¹"}]}
{"substance": "E236A–WT heterodimer without neck-linker extension (G0), WT head labeled with a gold nanoparticle (from UniProt P33176 1-490; P33176 1-490) (complex)", "values": [{"measurement": "Km (MT) of the microtubule-activated ATPase of the heterodimer (G0)", "setting": "[5]", "value": 0.54, "unit": "µM"}, {"measurement": "dwell time of the microtubule-bound state of the front WT head at 10 µM ATP", "setting": "[6]", "value": 1.1, "unit": "s"}, {"measurement": "kcat of the inverse bound dwell time against ATP, taken as the ATP-promoted detachment rate k2 of the front WT head", "setting": "[6]", "value": 6.3, "unit": "s^–1"}, {"measurement": "mean dwell time of the microtubule-bound state of the front WT head at 1 mM ATP", "setting": "[6]", "value": 160, "unit": "ms"}, {"measurement": "mean dwell time of the unbound state of the front WT head at 1 mM ATP", "setting": "[6]", "value": 11, "unit": "ms"}]}
{"substance": "ATTO488-labeled 'wild-type' monomer (Cys-light K349 monomeric kinesin with Cys55) (from UniProt P33176 1-349) (domain or fragment)", "values": [{"measurement": "inverse of the mean dwell time for head dissociation (Alexa-ATP-bound state ending in detachment from the microtubule)", "setting": "[8]", "value": 89.7, "unit": "s^–1"}]}
{"substance": "GFP-fused K339 Cys-light C47/C328 kinesin, oxidized (front head crosslink) (from UniProt P33176 1-339) (domain or fragment)", "values": [{"measurement": "fold increase of the binding frequency to the microtubule after crosslinking", "setting": "[1]", "value": 4, "unit": "fold"}, {"measurement": "k2 SMF (inverse of the mean dwell time on the microtubule, 1 mM ATP)", "setting": "[1]", "value": 2.3, "unit": "s⁻¹"}]}
